Results reported in patent publication US6479459 (IMMUNEX, dated 2002).

Molecular target: T1, soluble elk/Fc fusion protein (rat elk extracellular domain fused to human IgG1 Fc) (rat; human, UniProt P09759 18-540; P01857 99-330 = IgG part, limits assumed)
T1 construct: extracellular domain;domain: Fc region; Expressed transiently in mammalian host cells and purified on protein A sepharose
Assay: Scatchard analysis; elk/Fc at various concentrations on CV1-EBNA-1 cells expressing LERK-5, detected with 125I-mouse anti-human IgG
Description: CV1-EBNA-1 cells in 10 cm² dishes were transfected with the recombinant expression vector containing LERK-5 DNA. The CV-1/EBNA-1 cell line (ATCC CRL 10478) constitutively expresses EBV nuclear antigen-1 driven from the CMV immediate-early enhancer/promoter. CV1-EBNA-1 was derived from the African Green Monkey kidney cell line CV-1 (ATCC CCL 70), as described by McMahan et al. (*EMBO J*. 10:2821, 1991).
The transfected cells were cultured for 24 hours, and the cells in each dish then were split into a 24-well plate. After culturing an additional 48 hours, a binding assay was conducted by the following procedure. The transfected cells (about 4×10^4 cells/well) were washed with BM-NFDM, which is binding medium (RPMI 1640 containing 25 mg/ml bovine serum albumin, 2 mg/ml sodium azide, 20 mM Hepes pH 7.2) to which 50 mg/ml nonfat dry milk has been added. The cells then were incubated for 1 hour at 37° C. with various concentrations of the elk/Fc fusion protein prepared in Example 2 or the hek/Fc fusion protein prepared in Example 3. Cells then were washed and incubated with a constant saturating concentration of a ^125I-mouse anti-human IgG in binding medium, with gentle agitation for 1 hour at 37° C. After extensive washing, cells were released via trypsinization. […]

T1 sequence (P09759 other isoform, or with tags, fused parts or gaps limits assumed): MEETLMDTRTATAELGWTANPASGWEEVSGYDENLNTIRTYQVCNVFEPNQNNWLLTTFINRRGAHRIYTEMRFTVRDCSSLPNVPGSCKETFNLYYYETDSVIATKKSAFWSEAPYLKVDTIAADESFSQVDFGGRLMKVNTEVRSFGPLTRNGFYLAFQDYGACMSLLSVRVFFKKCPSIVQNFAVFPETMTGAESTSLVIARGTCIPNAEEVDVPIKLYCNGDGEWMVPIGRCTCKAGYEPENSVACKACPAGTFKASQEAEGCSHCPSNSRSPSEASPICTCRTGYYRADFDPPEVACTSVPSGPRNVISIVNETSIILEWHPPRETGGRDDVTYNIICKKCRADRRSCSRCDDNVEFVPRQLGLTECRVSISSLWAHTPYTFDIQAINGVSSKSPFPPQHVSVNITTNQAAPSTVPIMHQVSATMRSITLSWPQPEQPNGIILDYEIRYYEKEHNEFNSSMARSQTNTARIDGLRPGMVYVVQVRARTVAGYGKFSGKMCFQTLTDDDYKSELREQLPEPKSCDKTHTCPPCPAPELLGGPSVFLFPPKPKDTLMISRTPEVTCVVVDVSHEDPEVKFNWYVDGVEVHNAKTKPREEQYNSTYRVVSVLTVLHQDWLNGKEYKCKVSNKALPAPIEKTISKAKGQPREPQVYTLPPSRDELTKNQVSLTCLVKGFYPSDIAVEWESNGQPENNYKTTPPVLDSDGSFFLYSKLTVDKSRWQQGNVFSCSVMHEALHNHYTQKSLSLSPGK

Ka: 1.05e+09 M⁻¹
B1: human LERK-5 (recombinant, full length, expressed on the surface of transfected CV1-EBNA-1 cells) (ligand)
chain: KSIVLEPIYWNSSNSKFLPGQGLVLYPQIGDKLDIICPKVDSKTVGQYEYYKVYMVDKDQADRCTIKKENTPLLNCAKPDQDIKFTIKFQEFSPNLWGLEFQKNKDYYIISTSNGSLEGLDNQEGGVCQTRAMKILMKVGQDASSAGSTRNKDPTRRPELEAGTNGRSSTTSPFVKPNPGSSTDGNSAGHSGNNILGSEVALFAGIASGCIIFIVIIITLVVLLLKYRRRHRKHSPQHTTTLSLSTLATPKRSGNNNGSEPSDIIIPLRTADSVFCPHYEKVSGDYGHPVYIVQEMPPQSPANIYYKV
notes: The whole coding region of clone λ6 was expressed from pDC410 in CV1-EBNA-1 cells; also called clone λ6 protein
